Data from US20240228595A1 (YALE UNIVERSITY, published 2024).
Like-named read-outs stand apart in the source and are kept apart here.

Legend:
[1] = molecular target: SARS-COV-2 Omicron BA.1.1 spike on HIV-1 based pseudovirus (SARS-CoV-2 Omicron BA.1.1, UniProt P0DTC2 14-1273); experiment: cell-based or functional assay
[2] = molecular target: SARS-COV-2 Omicron BA.1 spike on HIV-1 based pseudovirus (Example 3) (SARS-CoV-2 Omicron BA.1, UniProt P0DTC2 14-1273); experiment: cell-based or functional assay
[3] = molecular target: SARS-COV-2 Omicron BA.2 spike on HIV-1 based pseudovirus (SARS-CoV-2 Omicron BA.2, UniProt P0DTC2 14-1273); experiment: cell-based or functional assay
[4] = molecular target: SARS-COV-2 Omicron (B.1.1.529) full length spike on HIV-1 based pseudovirus (Example 2) (SARS-CoV-2 Omicron, UniProt P0DTC2 14-1273); experiment: cell-based or functional assay
[5] = molecular target: T1, SARS-COV-2 Omicron RBD recombinant protein (Sino Biological 40592-V08H121) (SARS-CoV-2 Omicron BA.1, UniProt P0DTC2 319-541); experiment: BLI (Octet); by the text the format with mAb immobilised and soluble Omicron RBD
T1 construct: domain: RBD; also called SARS-COV-2 Omicron BA.1 RBD; Omicron RBD with his tag

[6] = molecular target: T1, SARS-COV-2 Omicron RBD recombinant …
[7] = molecular target: T1, SARS-COV-2 Omicron RBD recombinant …; remark: listed apart in the source
[8] = molecular target: T1, SARS-COV-2 Omicron RBD recombinant …; remark: listed apart in the source
[9] = molecular target: T1, SARS-COV-2 Omicron RBD recombinant …; remark: listed apart in the source
[10] = molecular target: T1, SARS-COV-2 Omicron RBD recombinant …; remark: listed apart in the source
[11] = molecular target: T1, SARS-COV-2 Omicron RBD recombinant …; experiment: ELISA, SARS-CoV-2-Omicron BA.1 RBD coated, antibody titrated
[12] = molecular target: T1, SARS-COV-2 Omicron RBD recombinant …; remark: listed apart in the source

B1: CoV2-0213 (bispecific antibody, human IgG1, kappa)
heavy 1: not shown
light 1: DIQMTQSPSSLSASVGDRVTITCRASESVEYYGTSLMQWYQQKPGKAPKLLIYAASNVESGVPARFSGSGSGTDFTLTISSLQPEDFATYYCQQSRKVPWTFGQGTKVEIKRSSASTKGPSVFPLAPSSKSTSGGTAALGCLVKDYFPEPVTVSWNSGALTSGVHTFPAVLQSSGLYSLSSVVTVPSSSLGTQTYICNVNHKPSNTKVDKKVEPKSC
heavy 2: not shown
light 2: not shown
For B1, the “pseudovirus neutralization, IC50” value [1] was 0.062 mg/L, the “pseudovirus neutralization, IC50” value [2] was 0.044 mg/L and the “pseudovirus neutralization, IC50” value [3] was 0.078 mg/L. The “pseudovirus neutralization, fold more effective than S309/Sotrovimab” value [3] was ~78 fold.

B2: Clone 2 (antibody, V domains shown)
VH: EVQLQQSGPELVKPGASVKISCKASGYSFTGYSMNWMKQSPEKSLEWIGEINPSTGGTTDNQKFKAKATLTVDKSSSTAYMQLKSLTSEDSAVYYCARSRGDYWGQGTSVTVSS
VL: DIVLTQSPASLAVSLGQRATISCRASESVEYYGTSLMQWYQQKPGQPPKVLIYAASNVESGVPARFSGSGSGTDFSLNIHPVEEDDIAMYFCQQSRKVPWTFGGGTKLEIKR
B2 was tested, and the “pseudovirus neutralization, IC50” value [4] was 0.396 mg/L.

B3: MB.08 (antibody, V domains shown)
VH: QVQLQESGPGLVKPSETLSLTCTVSGGSISSYYWSWIRQPPGKGLEWIGYIYYSGSTNYNPSLKSRVTISVDTSKNQFSLKLSSVTAADTAVYYCARGLTGGDAFDIWGQGTMVTVSS
VL: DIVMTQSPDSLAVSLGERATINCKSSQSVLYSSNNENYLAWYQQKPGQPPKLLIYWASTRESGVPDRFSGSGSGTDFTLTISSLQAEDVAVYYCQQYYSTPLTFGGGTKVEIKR
For B3, the Kd [5] was 7.16 nM, the koff [6] was 0.00536 s⁻¹ and the kon [6] was 418000 M⁻¹ s⁻¹. The Kd [7] was < 0.001 nM, the “EC50 (read off the curve)” value [8] was ~0.2 mg/L and the EC50 [9] was 0.0122 mg/L. For the same binder, the koff [10] was < 1e-07 s⁻¹, the kon [10] was 172000 M⁻¹ s⁻¹ and the EC50 [11] was 0.0014 mg/L. For the same binder, the koff [12] was 0.00536 s⁻¹ and the kon [12] was 418000 M⁻¹ s⁻¹.
